Results on 1 substance are retold here after paper PMC7380208.

The experiment addresses Flt3 Receptor Interacting Lectin (FRIL) from Lablab purpureus (Lablab purpureus) (UniProt Q9ZTA9). In words: SEC-MALS.

Consider “Flt3 Receptor Interacting Lectin (FRIL) from Lablab purpureus (from UniProt Q9ZTA9) (natural protein)”, for which the stoichiometry N came out at 4.
